{"source": "paper PMC4230619", "about": "(Molecular Biology of the Cell, 2014)", "proteins": {"B1": {"name": "dynamin2-EGFP (natural protein, human (endogenous in SUM159), UniProt P50570 1-870, looked up)", "chain": "MGNRGMEELIPLVNKLQDAFSSIGQSCHLDLPQIAVVGGQSAGKSSVLENFVGRDFLPRGSGIVTRRPLILQLIFSKTEHAEFLHCKSKKFTDFDEVRQEIEAETDRVTGTNKGISPVPINLRVYSPHVLNLTLIDLPGITKVPVGDQPPDIEYQIKDMILQFISRESSLILAVTPANMDLANSDALKLAKEVDPQGLRTIGVITKLDLMDEGTDARDVLENKLLPLRRGYIGVVNRSQKDIEGKKDIRAALAAERKFFLSHPAYRHMADRMGTPHLQKTLNQQLTNHIRESLPALRSKLQSQLLSLEKEVEEYKNFRPDDPTRKTKALLQMVQQFGVDFEKRIEGSGDQVDTLELSGGARINRIFHERFPFELVKMEFDEKDLRREISYAIKNIHGVRTGLFTPDLAFEAIVKKQVVKLKEPCLKCVDLVIQELINTVRQCTSKLSSYPRLREETERIVTTYIREREGRTKDQILLLIDIEQSYINTNHEDFIGFANAQQRSTQLNKKRAIPNQGEILVIRRGWLTINNISLMKGGSKEYWFVLTAESLSWYKDEEEKEKKYMLPLDNLKIRDVEKGFMSNKHVFAIFNTEQRNVYKDLRQIELACDSQEDVDSWKASFLRAGVYPEKDQAENEDGAQENTFSMDPQLERQVETIRNLVDSYVAIINKSIRDLMPKTIMHLMINNTKAFIHHELLAYLYSSADQSSLMEESADQAQRRDDMLRMYHALKEALNIIGDISTSTVSTPVPPPVDDTWLQSASSHSPTPQRRPVSSIHPPGRPPAVRGPTPGPPLIPVPVGAAASFSAPPIPSRPGPQSVFANSDLFPAPPQIPSRPVRIPPGIPPGVPSRRPPAAPSRPTIIRPAEPSLLD"}}, "molecular_target": "the molecule itself", "assay": "single-molecule TIRF step-intensity counting in live cells"}
{"protein": "B1", "values": [{"measurement": "stoichiometry N", "value": 2}]}
